# Assay results: the RNAGym collection of RNA variant scans (doi:10.1073/pnas.2313332121)
# This sample holds only a part of the variants without activity.
# B1: TPR 5TU (parent)
# chain: GGAUCUUCUCGAUCUAACAAAAAAGACAAAUCUGCCACAAAGCUUGAGAGCAUCUUCGGAUGCAGAGGCGGCAGCCUUCGGUGGCGCGAUAGCGCCAACGUUCUCAACUAUGACACGCAAAACGCGUGCUCCGUUGAAUGGAGUUUAUCAUG
# Variants of: B1
# Experiment: polymerase ribozyme fitness, log enrichment relative to wild type (log ratio); higher = more active; in vitro selection for triplet polymerase activity
# How it was run: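 Each subunit of a heterodimeric triplet polymerase ribozyme was represented by a PCR-built, transcribed mutant library that underwent triplicate single-round in vitro selection with frozen incubation at −7 °C. Extended constructs were recovered by gel excision, streptavidin-bead capture and RT-PCR, and Illumina sequencing of input and output libraries kept genotypes with ≥10 input reads and ≥1 read per output. Fitness is the logarithm of genotype enrichment relative to wild-type enrichment, from inverse-variance-weighted replicate averages, with a logarithm base of 2.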
row,Variant,polymerase ribozyme fitness (log ratio)
1,GGAUCUUCUCGAUCUAACAAAAAAGACAUAUCUGCCACAAAGCUUGAGAGCAUCUUCGGAUGCAGAGGCGGCAGCCUUCGGUGUCGCGAUAGCGCCAACGUUCUCAACUAUGACACGCAAAACGCGUGCUCCGUAGAAUGGAGUUUAUCAUG [A29U G84U U135A],≤ -4.2
2,GGAUCUUCUCGAUCUAGCAAAAAAGACAAAUCUGCCACAAAGCUUGAGAGCAUCUUCGGAUGCAGAGGCGGCAGCCUUCGGUGGCGCGAUAGCGCCAACGAUCUGAACUAUGACACGCAAAACGCGUGCUCCGUUGAAUGGAGUUUAUCAUG [A17G U101A C105G],-3.18
3,GGCUCUUCUCGAUCUAACAAAAAAGACAAAUCUGCCACAAAGCUUGAGAGCAUCUUCAGAUGCAGAGGCGGCAGCCUUCGGUGGCGCGAUAGCACCAACGUUCUCAACUAUGACACGCAAAACGCGUGCUCCGUUGAAUGGAGUUUAUCAUG [A3C G58A G94A],-0.578
4,GGAUCUUCUCGAUCUAACAAAAAAGACAAAUCUGCCACAAAGCUUGAGAGCAUCGUCGGAUGCAGAGGCGGCAGCCUUCGGUGGCGCGAUAGCGCCAACGUUCUCAACUAUGACACGUAAAACGCGUGCUCCGUUGAAUGGAGUUUAUCAUG [U55G C118U],-1.23
5,GGAUCUUCUCGAUCUAACAAAAAAGACAAAUCUGCCACAAAGCUUGAGAGCAUCUUCGGAUGCAGAGGCGGCAGCUUUCGGUGGCGCGAUAGCGCCAAGGUUCUCAACUAUGACACGCAAAACGCGUGCUCCGUUGAAUGGAGUUUAUCAUG [C76U C99G],-0.789
6,GGAUCUUCUCGAUCUAACAAAAAAGACAAAUCUGCCACAAAGCUUGAGAGCAUCUUCGGAUGCAGAGGCGCCAGCCUUCGGUGGCGCGAUAGCGCCAACGUUCUCAACUAUGACAUGCAAAACGCGUGCUCCGUUGAAUGGAGUUUAUCAUG [G71C C116U],-2.51
7,GGAUCUUCUCGAUCUAACAAAAAAGACAAAUCUGCCACAAAGCUUGAUAGCAUCUUCGGAUGCAGAGGCGGCAGCCUUCGGUGGCGCGAUAGCGCCAACGUUCUCAACUAUGACACGCAUAACGCGUGCUCCGUUGAAUGGAGUUUAUCAUG [G48U A120U],-0.0736
8,GGAUCUUCUCGAUCUAACAAAAAAGACAAAUCUGCCACAAAGCUUGAGAGCAUCUGCGGAUGCAGAGGCGGCAGCCUUCGGUGGCGCGAUGGCGCCAACGUUCUCAACUAUGACACGCAAAACGCGUGCUCCGUUGAAUGGAGUUUAUCAUG [U56G A91G],-3.24
9,GGAUCUUCUCGAUCUAACAAAAAAGACAAAUCUGCCACAAAGCUUGAGAGCAUCUUUGGAUGCAGAGGCGGCAGCCUUCGGUGGCGCGAUAGCGCCAACGUUCUCAACUAUGACACGCAAAACGCAUGCUCCGUUGAUUGGAGUUUAUCAUG [C57U G126A A138U],-3.43
10,GGAUCUUCUCGAUCUAACAAAAAAGACAAAUCUGCCACAAAGCUUGAGAGCAUCUACGGAUGCAGAGGCGGCAGCCUUCGGUGGCGCGAUAGUGCCAACGUUCUCAACUAUGACACGCAAAACGCGUGCUCCGUUGAAUGGAGUUUGUCAUG [U56A C93U A147G],-1.96
11,GGAUCUUCUCGAUCUAACAAAAAAGACAAAUCUGCCACAAAGCUUGCGAGCAUCUUCGGAUGCAGAGGCGGGAGCCUUCGGUUGCGCGAUAGCGCCAACGUUCUCAACUAUGACACGCAAAACGCGUGCUCCGUUGAAUGGGGUUUAUCAUG [A47C C72G G83U A142G],≤ -4.2
12,GGAUCUUCUCGAUCUAACUAAAAAGACAAAUCUGCCACAAAGCUUGAGAGCAUCUUCGGAUGCAGAGGCGGCAGCCUUCGGUGGCGCGAUAGCGCGAACGUUCUCAACUAUGACACGCAAAACGCGUGCUCCGUUGAAUGGCGUUUAUCAUG [A19U C96G A142C],-2.72
13,GGAUCUUUUCGAUCUAUCAAAAAAGACAAAUCUGCCACAAACCUUGAGAGCAUCUUCGGAUGCAGAGGCGGCAGCCUUCGGUGGCGCGAUAGCGCCAACGUUCUCAACUAUGACAUGCAAAACGUGUGCUCCGUUGAAUGGAGUUGAUCAUG [C8U A17U G42C C116U C125U U146G],≤ -4.2
14,GGAUCUUCUCGAUCUAACAAAAAAGAUAAAUCUGCCACAAAGCUUGAGAGCAUCAUCGGAUGCAGAGGCGGCAGCCUUCGGUGGCGCGAUAGCGCCAACGUUCUCAACUAUGACACGCAAAACGCGUGCUCCGUUGAAUGGAGUUUAUCAUG [C27U U55A],-0.901
15,GGAUCUUCUCGAUCUAACAAAAAAGACAAAUCUGCCGCAAAGCUUGAGAGCAUCUUCGGAUGCAGAGGGGGCAGCCUUCGGUGGCGCGAUAGCGCCAACGUUCUCAACUAUGACACGCAAAACGCGUGCUCCGUUGAAUGGAGUUUAUCAUG [A37G C69G],-0.726
16,GGAUCUUCUCGAUCUAACCAAAAAGACAAAUCUGCUACAAAGCUUGAGAGCAUCUUCGUGUGCAGAGGCGGCAGCCUUCGGUGGCGCGAUAGUGCCAACGUUCGCAACUAUGACACGCAAAACGCGUGCUCCGUUGAAUGGAGUUUAUCAUG [A19C C36U G59U A60G C93U U104G],-3.23
17,GGAUCUUCUCGAUCUAACAAAAAAGACAAAUCUGCCACAAAGCUUGAGAGCAUCUUCGGAUGCAGAGGCGGCAGCCUUCGGUGGCGCGAUAGCGCCAACGUUCUCAACUAUGACACGCAAAACGCGUGCUCCGUUGAAUGGAAUUUAUCAUG [G143A],-0.315
18,GGAUCUUCUCGAUCUAACAAAAAAGACAAAUCUGCCACAAAGCUUGAGAGCAUCUUCGGAUGCAGAGGCGGCAGCCUUCGGUAGCGCGAUAGCGCCAACGUUCUCAACUAUGACACGCAAAACGCGUGCUCCGUUGAAUGGAGUUUCUCAUG [G83A A147C],0.0173
19,GGUUCUUCUCGAUCUAACAAAAAAGACAAAUCUGCCACAAAGCUUGAGGACAUCUUCGGAUGCAGAGGCGGCAGCCUUCGGUGGCGCGAUAGCGCUAACGUUCUCAACUAUGACACGCAAAACGCGUGCUCCGUUGAAUGAAGUUUAUCAUG [A3U A49G G50A C96U G141A],-3.63
